Source: patent publication US20160017348A1

Biological target: H3K4AK9me2 peptide (UniProt P59226)
Assay: ITC; reference is the H3K9me2 peptide

fold weaker affinity than with the H3K9me2 peptide: 30 fold
B1: SHH1 SAWADEE domain (residues 125-258) (protein)
chain: ADLAFEAKSARDYAWYDVSSFLTYRVLRTGELEVRVRFSGFDNRHDEWVNVKTSVRERSIPVEPSECGRVNVGDLLLCFQEREDQALYCDGHVLNIKRGIHDHARCNCVFLVRYELDNTEESLGLERICRRPEE
